Results on five molecules are retold here after patent US20230181756A1 (Novartis, published 2023).

The target of assay [1] is T1, human CCR7 (human, UniProt P32248 25-378).
T1 sequence: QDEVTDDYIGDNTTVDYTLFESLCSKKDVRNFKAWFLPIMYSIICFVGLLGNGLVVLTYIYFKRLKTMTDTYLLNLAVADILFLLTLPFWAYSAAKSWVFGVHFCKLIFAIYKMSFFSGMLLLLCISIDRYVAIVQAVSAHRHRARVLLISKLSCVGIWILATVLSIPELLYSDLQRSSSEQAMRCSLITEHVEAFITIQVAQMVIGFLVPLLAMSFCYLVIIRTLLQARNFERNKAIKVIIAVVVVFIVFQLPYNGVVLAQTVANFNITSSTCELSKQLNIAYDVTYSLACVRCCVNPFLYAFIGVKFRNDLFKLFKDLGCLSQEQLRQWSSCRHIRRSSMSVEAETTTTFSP
Description: cell-based or functional assay.

Assay [2] has as its target T1, human CCR7. In words: cell-based or functional assay. This is another data set of the same source.
Assay [3] deals with T1, human CCR7. In words: cell-based or functional assay. The source holds these as a separate data set.
For a further assay, the target named is T2, mouse CCR7 (mouse, UniProt P47774 25-378).
T2 construct: also called NIH3T3.mouse CCR7
T2 sequence: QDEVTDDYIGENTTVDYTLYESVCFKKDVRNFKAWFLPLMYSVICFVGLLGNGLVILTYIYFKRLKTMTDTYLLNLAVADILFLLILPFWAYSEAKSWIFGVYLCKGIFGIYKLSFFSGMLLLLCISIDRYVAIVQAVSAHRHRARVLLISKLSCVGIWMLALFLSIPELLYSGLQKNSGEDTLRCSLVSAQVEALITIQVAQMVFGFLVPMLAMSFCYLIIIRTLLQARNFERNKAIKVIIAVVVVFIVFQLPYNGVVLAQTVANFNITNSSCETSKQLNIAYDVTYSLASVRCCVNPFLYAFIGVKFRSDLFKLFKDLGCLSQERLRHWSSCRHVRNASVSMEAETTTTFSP
In words: FACS titration, CD-1 mouse CD4+ T cells.

The next assay has as its target T3, rat CCR7 (rat, UniProt P47774 25-378 (mouse entry)).
T3 construct: also called NIH3T3.rat CCR7
T3 chain: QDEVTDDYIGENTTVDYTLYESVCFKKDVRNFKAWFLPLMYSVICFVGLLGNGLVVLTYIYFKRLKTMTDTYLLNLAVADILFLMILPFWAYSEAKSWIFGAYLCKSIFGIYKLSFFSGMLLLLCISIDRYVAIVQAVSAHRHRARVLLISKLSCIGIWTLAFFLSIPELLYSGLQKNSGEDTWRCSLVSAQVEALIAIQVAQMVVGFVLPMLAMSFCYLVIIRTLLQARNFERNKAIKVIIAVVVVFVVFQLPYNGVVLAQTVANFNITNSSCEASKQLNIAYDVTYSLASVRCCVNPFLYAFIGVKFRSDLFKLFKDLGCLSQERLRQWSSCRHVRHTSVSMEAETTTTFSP
Description: FACS titration, Wistar rat CD4+ T cells.

For the next assay, the target named is T4, cynomolgus monkey CCR7 (cynomolgus monkey, UniProt P32248 25-378 (human entry)).
T4 construct: also called Cyno CCR7; NIH3T3.cyno CCR7
T4 sequence: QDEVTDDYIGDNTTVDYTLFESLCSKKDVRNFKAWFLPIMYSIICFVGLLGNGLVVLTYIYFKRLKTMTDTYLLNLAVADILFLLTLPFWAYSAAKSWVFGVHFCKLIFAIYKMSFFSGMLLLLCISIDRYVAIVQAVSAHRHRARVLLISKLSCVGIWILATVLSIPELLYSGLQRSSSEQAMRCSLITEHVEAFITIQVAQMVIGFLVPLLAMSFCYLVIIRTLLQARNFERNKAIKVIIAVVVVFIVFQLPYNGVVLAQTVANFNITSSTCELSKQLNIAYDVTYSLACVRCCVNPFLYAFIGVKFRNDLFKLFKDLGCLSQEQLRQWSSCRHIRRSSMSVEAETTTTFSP
Description: FACS titration, cynomolgus CD4+ T cells.

Assay [4] concerns the target T1, human CCR7. Description: FACS titration, human CD4+ T cells from PBMC.
In assay [5] the target is T1, human CCR7. Description: cell-based or functional assay. This is another data set of the same source.
Assay [6] addresses T1, human CCR7. In words: FACS binding on CCR7 expressing cells, against the unconjugated antibody. (A flow cytometer gives signals particle by particle.)
The target of assay [7] is T1, human CCR7. Description: FACS titration, NIH3T3 cells expressing human CCR7.

B1: Parental 506E15 (antibody, V domains shown)
VH: EVMLVESGGGLVKPGGSLKLSCAASGFTFSSYAMSWIRQTPEKRLEWVATISSGGSFTYYPDSVKGRFTISRDNVKNTLYLQMSSLRSEDTAMYYCARRASTVVGTDFDVWGAGTTVTVSS
VL: DIQMTQSPSSLSASLGERVSLTCRASQDIGSSLNWLQQEPDGTIKRLIYATSSLDSGVPKRFSGSRSGSDYSLTISSLESEDFVVYYCLQYASSPPTFGGGTKLEIK
On to B1, for which, in the assay with human CCR7 [1], the “ADCC reporter assay, 506E15 IC50 (nM), ALL-SIL cells (CCR7 receptor # 6,200)” value was 0.008 nM; the “ADCC reporter assay, 506E15 IC50 (nM), CMLT-1 cells (CCR7 receptor # 29,000)” value amounted to 0.011 nM; the “ADCC reporter assay, 506E15 IC50 (nM), DEL cells (CCR7 receptor # 62,000)” value worked out at 0.074 nM; the “ADCC reporter assay, 506E15 IC50 (nM), DND-41 cells (CCR7 receptor # 1,700)” value was found to be 0.002 nM. Moreover, in the assay with human CCR7 [1], the “ADCC reporter assay, 506E15 IC50 (nM), JVM2 cells (CCR7 receptor # 66,500)” value amounted to 0.046 nM; the “ADCC reporter assay, 506E15 IC50 (nM), Jurkat V158 cells (CCR7 receptor # 3,400)” value was 0.004 nM; the “ADCC reporter assay, 506E15 IC50 (nM), MOTN-1 cells (CCR7 receptor # 64,600)” value amounted to 0.077 nM; the “ADCC reporter assay, 506E15 IC50 (nM), PEER cells (CCR7 receptor # 8,700)” value is 0.038 nM. The “ADCC reporter assay, 506E15 IC50 (nM), SR786 cells (CCR7 receptor # 27,800)” value with human CCR7 [1] was 0.011 nM. In the assay with human CCR7 [2], the “pgADC cytotoxic assay, Anti-mFc.MMAF, AMAX (%)” value amounted to 95%; the “pgADC cytotoxic assay, Anti-mFc.MMAF, IC50” value amounted to 0.07 nM; the “pgADC cytotoxic assay, Fab-ZAP, AMAX (%)” value came out at 60%; the “pgADC cytotoxic assay, Fab-ZAP, IC50” value is 0.135 nM.

B2: 506E15 non-humanized CysMab (antibody, human IgG1, kappa, V domains shown)
VH: EVMLVESGGGLVKPGGSLKLSCAASGFTFSSYAMSWIRQTPEKRLEWVATISSGGSFTYYPDSVKGRFTISRDNVKNTLYLQMSSLRSEDTAMYYCARRASTVVGTDFDVWGAGTTVTVSS
VL: DIQMTQSPSSLSASLGERVSLTCRASQDIGSSLNWLQQEPDGTIKRLIYATSSLDSGVPKRFSGSRSGSDYSLTISSLESEDFVVYYCLQYASSPPTFGGGTKLEIKR
notes: Chimeric human IgG1 kappa with CysMab cysteines and wild type Fc; also called Parental 506E15 hIgG1 CysMab; Non-humanized CysMab antibody 506E15
As a reminder, the EC50 is the midpoint of the concentration-response curve. B2: in the assay with human CCR7 [3], the “ADCC activity; IC50 (nM); reporter assay, JVM2 targets and Jurkat-V158 effectors” value came out at 0.131 nM. In addition, the binding result with mouse CCR7 and with rat CCR7 was “no binding” throughout. For the same molecule, the EC50 is 6.6 nM with cynomolgus monkey CCR7 and 4.6 to 9.7 nM with human CCR7 [4].

B3: 506E15.CysMab.DAPA.AURIX2 (antibody, human IgG1, kappa, V domains shown)
VH: EVQLVESGGGLVKPGGSLRLSCAASGFTFSSYAMSWIRQAPGKGLEWVATISSGGSFTYYPDSVKGRFTISRDNAKNSLYLQMNSLRAEDTAVYYCARRASTVVGTDFDVWGQGTTVTVSS
VL: DIQMTQSPSSLSASVGDRVTLTCRASQDIGSSLNWLQQKPGKAIKRLIYATSSLDSGVPSRFSGSRSGTDYTLTISSLQPEDFVVYYCLQYASSPPTFGGGTKLEIKR
modifications: AURIX2 on engineered cysteines, DAR 3.80
notes: also called 506E15.DAPA.AURIX2
Take B3: in the assay with human CCR7 [5], the “ADC activity in cell viability assay; IC50 (nM); DEL cells” value was 0.0084 nM and the “ADC activity in cell viability assay; IC50 (nM); KE97 cells” value was 0.0131 nM. The “difference of geometric mean fluorescence intensity from the unconjugated antibody” value in the assay with human CCR7 [6] was at most 20%.

B4: 674J13 non-humanized CysMab (antibody, human IgG1, kappa, V domains shown)
VH: DVQLQESGPDLVKPSQSLSLTCTVTGYSITSGYSWHWIRQFPGNKLEWMAHIHSSGSTNYNPSLKSRISIIRDTSKNLFFLQLNSVTTEDTATYYCARGGVQAFAYWGQGTLVTVSA
VL: QIVLTQSPAIMSASPGEKVTMTCSASSSVIYMHWYQQKSGTSPKRWIYDTSKLASGVPARFSGSGSGTSYSLTISSMEAEDAATYYCQQWSSNPLTFGAGTTLELKR
notes: Chimeric human IgG1 kappa with CysMab cysteines and wild type Fc; also called Parental 674J13 hIgG1 CysMab; Non-humanized CysMab antibody 674J13
Regarding B4, the “ADCC activity; IC50 (nM); reporter assay, JVM2 targets and Jurkat-V158 effectors” value with human CCR7 [3] is 1.09 nM. The binding result with mouse CCR7 and in the assay with rat CCR7 was “no binding” each time. Further, the EC50 is 0.45 nM with cynomolgus monkey CCR7, 0.39 to 1.4 nM with human CCR7 [4] and 3.6 nM in the assay with human CCR7 [7].

B5: Parental 674J13 (antibody, IgG1, V domains shown)
VH: DVQLQESGPDLVKPSQSLSLTCTVTGYSITSGYSWHWIRQFPGNKLEWMAHIHSSGSTNYNPSLKSRISIIRDTSKNLFFLQLNSVTTEDTATYYCARGGVQAFAYWGQGTLVTVSA
VL: QIVLTQSPAIMSASPGEKVTMTCSASSSVIYMHWYQQKSGTSPKRWIYDTSKLASGVPARFSGSGSGTSYSLTISSMEAEDAATYYCQQWSSNPLTFGAGTTLELK
As for B5, in the assay with human CCR7 [2], the “pgADC cytotoxic assay, Anti-mFc.MMAF, AMAX (%)” value was determined as 102%; the “pgADC cytotoxic assay, Anti-mFc.MMAF, IC50” value was 0.137 nM; the “pgADC cytotoxic assay, Fab-ZAP, AMAX (%)” value is 31%; the “pgADC cytotoxic assay, Fab-ZAP, IC50” value stood at 6.12 nM.
